{
  "source": "the Immune Epitope Database (IEDB)",
  "key": {"[1]": {"target": "HLA-B*07:02", "assay": "IEDB peptide-MHC binding, purified MHC/competitive/radioactivity; ≥ and ≤ were set here for values at or beyond the usual limits of such assays"}, "[2]": {"target": "HLA-B*07:02", "assay": "IEDB peptide-MHC binding, purified MHC/competitive/radioactivity; filed as Kd, often an IC50 or EC50 that approximates it; ≥ and ≤ were set here for values at or beyond the usual limits of such assays", "conditions": "source organism: Human immunodeficiency virus 1"}, "[3]": {"target": "HLA-A*02:01", "assay": "IEDB peptide-MHC binding, purified MHC/competitive/radioactivity; ≥ and ≤ were set here for values at or beyond the usual limits of such assays", "conditions": "source organism: Plasmodium falciparum"}, "[4]": {"conditions": "source organism: Human immunodeficiency virus 1"}},
  "data": [
    {"sequence": "YPLASLRSLF", "values": [
      {"measurement": "IC50", "setting": "[1]; [4]", "value": 408, "unit": "nM"}
    ]},
    {"sequence": "TPGIRYQYNI", "values": [
      {"measurement": "Kd", "setting": "[2]", "value": 8620, "unit": "nM"}
    ]},
    {"sequence": "GLLGVVSTV", "values": [
      {"measurement": "IC50", "setting": "[3]", "value": 24.3, "unit": "nM"}
    ]},
    {"sequence": "IPIHYCAPA", "values": [
      {"measurement": "IC50", "setting": "[1]; [4]", "value": 445, "unit": "nM"}
    ]},
    {"sequence": "CPKVSFEPI", "values": [
      {"measurement": "IC50", "setting": "[1]; [4]", "value": 127, "unit": "nM"}
    ]},
    {"sequence": "RPPIFIRRL", "values": [
      {"measurement": "IC50", "setting": "[1]; source organism: human gammaherpesvirus 4", "value": 21, "unit": "nM"}
    ]},
    {"sequence": "GPKVKQWPI", "values": [
      {"measurement": "Kd", "setting": "[2]", "value": 5570, "unit": "nM"}
    ]},
    {"sequence": "HPVHAGPIA", "values": [
      {"measurement": "IC50", "setting": "[1]; [4]", "value": 57, "unit": "nM"}
    ]},
    {"sequence": "TPYAGEPAPF", "values": [
      {"measurement": "IC50", "setting": "[1]; source organism: Plasmodium falciparum", "value": 31, "unit": "nM"}
    ]},
    {"sequence": "WPLTEEKIKI", "values": [
      {"measurement": "Kd", "setting": "[2]", "value": 19400, "unit": "nM"}
    ]},
    {"sequence": "ILSVSSFLFV", "values": [
      {"measurement": "IC50", "setting": "[3]", "value": 208, "unit": "nM"}
    ]},
    {"sequence": "QPRAPIRPIPT", "values": [
      {"measurement": "IC50", "setting": "[1]; source organism: Human herpesvirus 4 strain B95-8", "value": 110, "unit": "nM"}
    ]}
  ]
}
